This note sets out measurements from article PMC5555201, “Parallel homodimer structures of the extracellular domains of the voltage-gated sodium channel β4 subunit explain its role in cell–cell adhesion” (The Journal of Biological Chemistry, 2017).

Broadly, the stoichiometry N is the number of molecules, sites or subunits per partner or assembly.

Data set [1] concerns the molecule itself. As to the kind of experiment: SEC; HiLoad 16/60 Superdex 75, non-reducing conditions; second peak (65–75 ml) of the anion exchange chromatography; 20 mM Tris-HCl (pH 8.0), 150 mM NaCl, 10% glycerol. In general terms: Size exclusion chromatography separates by hydrodynamic size, large species first.
Data set [2] deals with the molecule itself. As to the kind of experiment: crystal structure; mouse β4ex, cubic crystal form, 3.1 Å; 2.7 M sodium malonate, 0.1 M Tris-HCl (pH 7.0), 0.5% Tween 20, 20 °C; two molecules in the asymmetric unit related by non-crystallographic 2-fold symmetry.

B1: human β4 subunit extracellular domain fragment (residues 30–152) (domain or fragment, UniProt Q8IWT1-1 30-152, looked up)
chain: SLEVSVGKATDIYAVNGTEILLPCTFSSCFGFEDLHFRWTYNSSDAFKILIEGTVKNEKSDPKVTLKDDDRITLVGSTKEKMNNISIVLRDLEFSDTGKYTCHVKNPKENNLQHHATIFLQVV
notes: voltage-gated sodium channel β4 subunit, human, GenBank NP_777594, residues 30–152; all three Cys residues kept; His tag cleaved by tobacco etch virus protease; also called human β4ex; human β4 (hexagonal form); source: E. coli cell-free protein synthesis, purified (HisTrap, HiTrap Q, Superdex 75); not shown: His tag, N-terminal, cleaved
With B1, the “stoichiometry N” value in data set [1] worked out at 2.

B2: mouse β4 subunit extracellular domain fragment (residues 30–160) with a C-terminal His6 tag (domain or fragment, UniProt Q7M729 30-160, looked up)
chain: SLEVSVGKATTIYAINGSSILLPCTFSSCYGFENLYFKWSYNNSETSRILIDGIVKNDKSDPKVRVKDDDRITLEGSTKEKTNNISILLSDLEFSDTGRYTCFVRNPKEKDLNNSATIFLQVVDKLEKVDN
notes: voltage-gated sodium channel β4 subunit, mouse, GenBank BK001031.1, residues 30–160 (numbering starts from the initiator methionine residue); all three Cys residues kept; Cloned into pGEX6P2; GST cleaved with PreScission protease; also called mouse β4ex; mouse β4 (cubic form); source: E. coli BL21DE3, purified (nickel-Sepharose, glutathione-Sepharose, Mono Q); not shown: His6, C-terminal, kept
With B2, the binding result in data set [2] is given as “binds”.
